Experimental findings from publication doi:10.1101/2025.03.23.644798 (bioRxiv, 2025) are described below.

The data set concerns the molecule itself. The data set is described as follows: native gel or EMSA. For orientation: In EMSA bound probe runs differently from free probe, usually more slowly.

B1: wild-type D-amino acid oxidase from Schizosaccharomyces pombe (enzyme, UniProt Q9Y7N4 1-348, looked up)
chain: MTKENKPRDIVIVGAGVIGLTTAWILSDLGLAPRIKVIAKYTPEDRSVEYTSPWAGANFCSISATDDNALRWDKITYHRFAYLAKTRPEAGIRFADLRELWEYEPKHDKIRSWNTYVRDFKVIPEKDLPGECIYGHKATTFLINAPHYLNYMYKLLIEAGVEFEKKELSHIKETVEETPEASVVFNCTGLWASKLGGVEDPDVYPTRGHVVLVKAPHVTETRILNGKNSDTYIIPRPLNGGVICGGFMQPGNWDREIHPEDTLDILKRTSALMPELFHGKGPEGAEIIQECVGFRPSRKGGARVELDVVPGTSVPLVHDYGASGTGYQAGYGMALDSVMLALPKIKLA
Consider B1, for which the binding result is given as “binds”.
